From publication PMC11251166

Molecular target: ADP-ribosylated ubiquitin (ADPR-Ub) (UniProt P0CG48)
Test: ITC

## MavL_N322A
  Kd: 5.96 µM
